Assay results: the supplement of paper PMC10724198
± gives the standard deviation of the averaged measurements.

test system: Saccharomyces cerevisiae; assay: protein stability index of tFT-peptide fusion (C-terminal peptide) (PSI (0-1 scale)); higher = more stable (slower turnover); conditions: genetic background: wild type; temperature: 30 C
Protocol: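 Multiplexed protein stability (MPS) profiling in S. cerevisiae. Random 12-aa peptides (tFT-X12 library) are fused to the C-terminus of a sfGFP-mCherry tandem fluorescent timer, after mCherry and a GGGS linker. Cells are FACS-sorted into 8 mCherry/sfGFP bins and deep-sequenced. The protein stability index (PSI) is the read-weighted bin average, scaled from 0 (unstable) to 1 (stable). Only peptides with >10 reads are reported; cells were grown at 30 °C in SC-His with glucose.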
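Also: PSI is a weighted mean of sequencing reads over stability bins, variants kept only with over 10 reads, mCherry proximal and sfGFP distal, peptide attached via GGGS linker.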

Sequence	protein stability index
ASRPAPPAPAFL	0.675 ± 0.005
ASRWVLLVGGGV	0.652 ± 0.056
ASSDRWVVYLYG	0.685 ± 0.0083
ASSLLPIPPPPF	0.706 ± 0.012
ASSLPIWLVWWL	0.536 ± 0.02
ASSSLLRCFSRF	0.648 ± 0.062
ASTRPFYVSSFG	0.741 ± 0.13
ATFSVMRGQHGQ	0.686 ± 0.0057
ATGFSLLDFSMP	0.679 ± 0.069
ATHSMSYRGSTK	0.662 ± 0.081
ATKKRKKKNKQT	0.756 ± 0.11
ATLDVTALRQES	0.636 ± 0.011
ATPVPTPRPAAP	0.729 ± 0.048
ATPYGLTPNYSG	0.676 ± 0.15
ATRRYQYSPHKV	0.651 ± 0.026
ATTPPSSLFGPL	0.768 ± 0.072
ATVKRAVPPVFR	0.7 ± 0.041
AVARYPPHCSHN	0.768 ± 0.13
AVCVSVCGRLLV	0.5492 ± 0.0023
AVGWQRQTEQRR	0.684 ± 0.088
AVLGGLIYECVV	0.634 ± 0.018
AVLGRRSQHASA	0.6832 ± 0.0036
AVNADMHDKKIA	0.7 ± 0.036
AVPAPPPTLPPI	0.685 ± 0.051
AVPSPVTLPTTS	0.641 ± 0.066

Sequence	protein stability index
AVQTTGRAGRVG	0.683 ± 0.056
AVVRTVVCLNVL	0.573 ± 0.013
AVVVCGGGGWWA	0.687 ± 0.068
AVVWMGAGVGGV	0.718 ± 0.03
AVWLGGGGRFVG	0.78 ± 0.034
AWAVGPTICRRG	0.7219 ± 0.0021
AWLPVLPLVSFF	0.621 ± 0.062
AWLTTSGLVGSD	0.725 ± 0.029
AYYRPQNLSPVT	0.675 ± 0.083
CAADYRRHLQRP	0.669 ± 0.026
CAAVPLLASDVR	0.688 ± 0.011
CAAYIYLGGSFF	0.707 ± 0.033
CACIPLHFAPSL	0.683 ± 0.04
CANFIGAVPGSV	0.686 ± 0.011
CAQLVLDNHTGP	0.69 ± 0.079
CAVLGGGVVWGA	0.668 ± 0.028
CAVPAVIDLDKF	0.65 ± 0.087
CCADPWRIARPW	0.729 ± 0.042
CCCGSGFFLLKV	0.525 ± 0.021
CCFPPLSPPASP	0.656 ± 0.072
CCGHEFEIYNWV	0.786 ± 0.1
CCILTHFSSCET	0.679 ± 0.011
CCTPSFANVRDG	0.6998 ± 0.0027
CECAEGRGKDRS	0.591 ± 0.0069
CELCVCKHGGKG	0.702 ± 0.013

Sequence	protein stability index
CFASTFVSPILH	0.694 ± 0.03
CFFVRLSSFYCS	0.63 ± 0.0089
CFLFSFSLFPFV	0.618 ± 0.066
CFPALSGVQGGM	0.706 ± 0.082
CFPPLPPPPPPS	0.736 ± 0.0077
CFPRVLFPVAAP	0.608 ± 0.049
CFPSSVPFPSLL	0.778 ± 0.058
CFVLPWHVPFGF	0.715 ± 0.021
CGCGCPSRVLVS	0.643 ± 0.061
CGCSLPGFCFLA	0.53 ± 0.022
CGDAGSVGCVYV	0.699 ± 0.055
CGEGGVCRLVFS	0.682 ± 0.0074
CGGAADWRDWGW	0.775 ± 0.086
CGGFAEGGGCRM	0.697 ± 0.028
CGLFFSCVGVSG	0.6411 ± 0.005
CGQGRSVPFRSV	0.658 ± 0.0094
CGQKREFKEGGG	0.634 ± 0.0059
CGWLTCSAGFCA	0.726 ± 0.11
CGWSQLCRDSES	0.675 ± 0.042
CGYVSGGWAGNV	0.691 ± 0.025
CHTDLPLLGTSR	0.681 ± 0.022
CHTESKLKRKKW	0.645 ± 0.028
CIPCLLAYPETC	0.655 ± 0.14
CIRPPPPSPKLM	0.694 ± 0.0096
CISIRKEERRKI	0.7012 ± 0.0019

Sequence	protein stability index
CKCRRYYTLNGG	0.656 ± 0.025
CKFPSLCVLSSV	0.654 ± 0.07
CKHPAWFQPRVG	0.618 ± 0.044
CKIGMFIRWIGG	0.571 ± 0.04
CKLDVMSRSFVG	0.664 ± 0.0089
CKNRLKMKQESK	0.658 ± 0.028
CLAFDLGLSPLF	0.755 ± 0.099
CLEGCTIHTSGE	0.652 ± 0.015
CLFWWDASTILP	0.68 ± 0.13
CLGGRRVCRCKG	0.631 ± 0.054
CLGVCAFSFCCN	0.624 ± 0.012
CLLPGSSYSFTS	0.712 ± 0.045
CLMHTENCIRKA	0.674 ± 0.032
CLRDTLTCLFFF	0.5953 ± 0.0044
CLRGLLVMLYQR	0.54 ± 0.01
CLRRGGAGEGAS	0.687 ± 0.0037
CLRWSRVGTVVV	0.564 ± 0.025
CLSDPDVVRVLS	0.6914 ± 0.0018
CLSLLWRVLDLW	0.688 ± 0.065
CLWGQWAVGCMG	0.6169 ± 0.0019
CNGPRLFDKSPI	0.695 ± 0.017
CNRVSLSNVRLF	0.6675 ± 0.00083
CPFPLPPPTLPP	0.657 ± 0.01
